Experiments:
Experiment in all cases: AlphaScreen or HTRF
[1] = biological target: full-length recombinant mouse EPPIN (mEPPIN; L24-T134) (mouse) (UniProt Q9DA01)
mEPPIN^L24-K68 (mouse) = mEPPIN^L24-K68 (mouse) (UniProt Q9DA01)
[2] = biological target: T1, full-length recombinant mouse EPPIN (mEPPIN; L24-T134) (mouse, UniProt Q9DA01 24-134)
T1 sequence (looked up): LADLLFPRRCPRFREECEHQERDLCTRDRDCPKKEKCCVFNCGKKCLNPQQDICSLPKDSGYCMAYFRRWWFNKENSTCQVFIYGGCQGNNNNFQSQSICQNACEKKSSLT

[3] = biological target: full-length recombinant mouse SEMG1 (mSEMG1; Q32-G375) (mouse)

full-length recombinant mouse SEMG1 (mSEMG1; Q32-G375) (natural protein)
EC50 [1]: 23.6 nM
reduction in the specific signal compared to full-length EPPIN (mEPPIN^L24-K68 (mouse)): 75%

B1: recombinant human SEMG1 (hSEMG1, G26-R281) (domain or fragment, UniProt P04279 26-281, looked up)
chain: GGSKGRLPSEFSQFPHGQKGQHYSGQKGKQQTESKGSFSIQYTYHVDANDHDQSRKSQQYDLNALHKTTKSQRHLGGSQQLLHNKQEGRDHDKSKGHFHRVVIHHKGGKAHRGTQNPSQDQGNSPSGKGISSQYSNTEERLWVHGLSKEQTSVSGAQKGRKQGGSQSSYVLQTEELVANKQQRETKNSHQNKGHYQNVVEVREEHSSKVQTSLCPAHQDKLQHGSKDIFSTQDELLVYNKNQHQTKNLNQDQQHGR
EC50 [2]: 8.3 nM

B2: full-length recombinant mouse EPPIN (mEPPIN; L24-T134) (natural protein)
chain: T1 sequence (looked up)
EC50 [3]: 1 nM
